What is called stoichiometry N is the number of molecules, sites or subunits per partner or assembly.

Assay [1] deals with FluPolB, influenza B/Memphis/2003 polymerase heterotrimer (wild type) (influenza B virus B/Memphis/2003) (UniProt Q5V8Z9). The assay can be described thus: mass photometry.
Assay [2] concerns the target FluPolA/H7N9-WT, wild-type influenza A/Zhejiang/DTID-ZJU01/2013(H7N9) polymerase heterotrimer (influenza A virus A/Zhejiang/DTID-ZJU01/2013(H7N9)) (UniProt M9TI86). The assay can be described thus: SEC. (In general: Size exclusion chromatography separates by hydrodynamic size, large species first.)

Several values for one entry are separate records, joined by “and”; a condition that tells them apart may be missing. Equal values may be shown once.

On to “FluPolB, influenza B/Memphis/2003 polymerase heterotrimer (wild type) (from UniProt Q5V8Z9;Q5V8Y6;Q5V8X3) (complex)”, for which, in assay [1], the fraction of dimers is 7% and 15%; the stoichiometry N was determined as 2.
In turn, “FluPolA/H7N9-WT, wild-type influenza A/Zhejiang/DTID-ZJU01/2013(H7N9) polymerase heterotrimer (from UniProt M9TI86;M9TLW3;X5F427) (complex)” gave a stoichiometry N in assay [2] of 2.

These data come from publication doi:10.1101/2024.04.20.590211.
